No end group written: not given here.
Tests used:
[1] = biological target: T1, 7-hydroxycoumarin labeled TLR1 TMD peptide (Homo sapiens, UniProt Q15399); test: FRET titration, TLR2-TLR1; format: binding; settings: nM of acceptor labeled peptide; donor coumarin-TLR1 20 nM, fluorescein-TLR2 0-1500 nM, 1 mM C14-betaine, 100 mM HEPES pH 7.4; Hill equation; read-out: Dissociation constant, TLR2-TLR1 interaction
T1 construct: we synthesized peptides for the TLR1, TLR2, and TLR6 TMDs; made in house; host or cells: chemical solid-phase synthesis on Rink Amide resin (C-terminal amide)
T1 sequence (Q15399 581-601 limits assumed): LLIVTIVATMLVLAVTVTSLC
Description: (§1) Using the same TLR1, TLR2, and TLR6 peptides, as described above, we were able to monitor the heterotypic interactions between TLR2-TLR1 and TLR2-TLR6 using a previously reported Förster resonance energy transfer (FRET) assay. […] The dissociation constant for the TLR2-TLR1 interaction was 230.8±20.0 nM of acceptor labeled peptide and for TLR2-TLR6 it was 286.5±14.8 nM of acceptor labeled peptide (Fig. 6C). […] SE-AUC was also used to investigate the oligomeric state of the TLR2-TLR6 heterotypic interaction.
(§2) Figure 6 TLR2-TLR1 and TLR2-TLR6 Heterotypic Interactions Measured by Förster Resonance Energy Transfer. Synthetic TMD peptides were co-incubated in micelles with the FRET donor concentration fixed to be 20 nM and the FRET acceptor concentration varied from 0–1500 nM. The donor was excited at 415 nm and emission was monitored from 440–600 nm. Only donor emission is shown as the excitation-emission separation led to a high background signal seen in the acceptor channel. (A) TLR2-TLR1 donor channel. (B) TLR2-TLR6 donor channel. (C) FRET efficiency based on decrease in donor signal at increasing acceptor concentrations.
(§3) FRET was used to directly probe the heterotypic association of the synthetic peptides. FRET experiments were performed on a Horiba Fluorolog-3 using a 0.3 cm path length cuvette. […]

[2] = biological target: T2, 7-hydroxycoumarin labeled TLR6 TMD peptide (Homo sapiens, UniProt Q9Y2C9); test: FRET titration, TLR2-TLR6; format: binding; settings: nM of acceptor labeled peptide; donor coumarin-TLR6 20 nM, fluorescein-TLR2 0-1500 nM, 1 mM C14-betaine, 100 mM HEPES pH 7.4; Hill equation; read-out: Dissociation constant, TLR2-TLR6 interaction
T2 construct: we synthesized peptides for the TLR1, TLR2, and TLR6 TMDs; made in house; host or cells: chemical solid-phase synthesis on Rink Amide resin (C-terminal amide)
Description: as §1, §2, §3

[3] = Sedimentation equilibrium analytical ultracentrifugation (SE-AUC); format: physicochemical; settings: for Oligomeric state (equilibrium model) / Average molecular weight obtained from the fit: SE-AUC; for Oligomeric state (equilibrium model): density matched 10 mM C14-betaine micelles, 100 mM HEPES pH 7.4, 25% D2O, 25 °C; for Average molecular weight obtained from the fit: peptide alone, global fit, single species model, 495 nm (FITC-TLR2) or 400 nm (coumarin-TLR6)
Description: (§4) Supplementary file pone.0048875.s003.tif: Figure S3 TLR2 Homotypic Sedimentation Equilibrium AUC. Sedimentation equilibrium profile at 495 nm of FITC-labeled TLR2 in density matched C14-betaine micelles (10 mM) in HEPES buffer (100 mM, pH 7.4). The partial specific volume and the solution density were fixed at 0.78730 mL/g and 1.031 g/mL, respectively. The data was analyzed using a global fitting routine. […] (TIF) Click here for additional data file.
as §4, with “pone.0048875.s004.tif:” for “pone.0048875.s003.tif:”, “S4 TLR6” for “S3 TLR2”, “400” for “495”, “coumarin-labeled TLR6” for “FITC-labeled TLR2”, “0.78705” for “0.78730”
as §4, with “pone.0048875.s005.tif:” for “pone.0048875.s003.tif:”, “S5 TLR2-TLR6 Heterotypic” for “S3 TLR2 Homotypic”, “7.4) in the presence of 2 equiv. of coumarin-labeled TLR6 peptide.” for “7.4).”
Equilibrium sedimentation was used primarily to determine the association state of TLR2, TLR6, and TLR2-TLR6. The experiments were performed in a Beckman XL-I analytical ultracentrifuge (Beckman Coulter) using six-channel carbon-epoxy composite centerpieces at 25 °C. Peptides were co-dissolved in trifluoroethanol (TFE) and C14-betaine. The organic solvent was removed using dry nitrogen gas and the resulting thin film of peptide/detergent mixture was dried overnight. The sample was then dissolved in buffer previously determined to match the density of the detergent component (100 mM HEPES buffer (pH= 7.4) buffer containing 25% D2O). The final concentration of C14-betaine is 10 mM in all of the samples. Peptide concentrations were determined by UV-Vis on the Beckman Coulter XL-I and dilutions were carried out to get concentrations in the desired absorbance ranges of the instrument (0.3-1) using the following extinction coefficients: 39,300 M^-1cm^-1 at 400 nm for coumarin labeled peptides and 69,000 M^-1cm^-1 at 495 nm for FITC labeled peptides. Data at different measurement speeds (30, 35 krpm) and different peptide:detergent ratios were analyzed by global curve-fitting of radial concentration gradients (measured using optical absorption) to the sedimentation equilibrium equation. Absorbance at both 400 nm and 495 nm was measured. Peptide partial specific volumes were calculated using previously described methods and residue molecular weights corrected for the 25% D2O exchange expected for the density-matched buffer. The solvent density (1.031 g/ml) was calculated using the program Sednterp. These coefficients were multiplied by the molar detergant ratio concentration units. […]
where E = baseline (zero concentration) absorbance, co is the peptide/detergent ratio of the peptide at ro, ε is the molar extinction coefficient, l is the optical path length, ω =2π*RPM, R= 8.3144 ×10^7 erg K^-1mol^-1 , T is temperature in K, M is the buoyant molecular weight of the peptide. […]

[4] = 10 mM C14-betaine, 100 mM HEPES pH 7.4

## TLR2*: TLR2 TMD chimera with nonfunctional ToxR* domain (negative phenotype) (GNRASALVSGMCCALFLLILLTGVLCGSLIN; cysteine pairing not given here; also: fused to non-functional ToxR* (S87H) and maltose binding protein, ends not given here)
[1]
  Kd: 231 ± 20 nM
[2]
  Kd: 286 ± 14.8 nM
[3]; SE-AUC at 495 nm, FITC-labeled TLR2 with 2 equiv. of coumarin-labeled TLR6 peptide, 10 mM C14-betaine, 100 mM HEPES pH 7.4
  Average molecular weight obtained from the fit, in the presence of TLR6: 12330±506 Da
[3]
  Oligomeric state (equilibrium model): monomer-dimer-tetramer equilibrium
[3]; [4]
  Average molecular weight obtained from the fit: 14135±370 Da

## TLR6*: TLR6 TMD chimera with nonfunctional ToxR* domain (negative phenotype) (GNRASITLLIVTIGATMLVLAVTVTSLCIYLGSLIN; also: fused to non-functional ToxR* (S87H) and maltose binding protein, ends not given here)
[3]
  Oligomeric state (equilibrium model): monomer-dimer equilibrium
[3]; [4]
  Average molecular weight obtained from the fit: 7680±866 Da
